Measured values taken from US20070231329A1.

Assays:
[1] = target: extracellular region of human V158 FcγRIIIa with C-terminal 6x His-tag and GST-tag (human) (UniProt P08637); test: SPR
[2] = target: extracellular region of human F158 FcγRIIIa with C-terminal 6x His-tag and GST-tag (human) (UniProt P08637); test: SPR, receptor immobilized, antibody flowed
[3] = target: extracellular region of human V158 FcγRIIIa with C-terminal 6x His-tag and GST-tag (human) (UniProt P08637); test: SPR, His-tagged receptor immobilized, antibody flowed
[4] = target: FcγRIIIa on human PBMCs expressing heterozygous V158/F158 FcγRIIIa (human) (UniProt P08637); test: cell-based or functional assay

Sequence of extracellular region of human V158 FcγRIIIa with C-terminal 6x His-tag and GST-tag (human) (P08637 17-208 F176V, chain 1 of 2): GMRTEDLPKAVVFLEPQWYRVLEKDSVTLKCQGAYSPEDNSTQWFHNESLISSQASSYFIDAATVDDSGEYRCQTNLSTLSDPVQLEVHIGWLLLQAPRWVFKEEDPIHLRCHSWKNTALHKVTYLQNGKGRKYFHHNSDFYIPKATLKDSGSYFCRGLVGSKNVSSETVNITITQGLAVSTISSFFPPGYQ
Sequence of extracellular region of human V158 FcγRIIIa with C-terminal 6x His-tag and GST-tag (human) (P08515 whole entry, chain 2 of 2, further chain): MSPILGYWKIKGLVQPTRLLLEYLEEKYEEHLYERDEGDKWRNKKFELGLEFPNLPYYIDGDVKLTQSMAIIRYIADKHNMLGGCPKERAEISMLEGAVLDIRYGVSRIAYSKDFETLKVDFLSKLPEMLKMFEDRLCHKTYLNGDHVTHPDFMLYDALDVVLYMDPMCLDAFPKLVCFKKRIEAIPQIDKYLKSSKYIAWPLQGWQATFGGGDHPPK
Sequence of extracellular region of human F158 FcγRIIIa with C-terminal 6x His-tag and GST-tag (human) (P08637 17-208, chain 1 of 2): as the sequence (P08637 17-208 F176V, chain 1 of 2) above, with V160F counted along it
Sequence of extracellular region of human F158 FcγRIIIa with C-terminal 6x His-tag and GST-tag (human) (P08515 whole entry, chain 2 of 2, further chain): as the sequence (P08515 whole entry, chain 2 of 2, further chain) above

Fold WT V158 FcγRIIIa [1] | Kd [2] | Kd [3] | Substance | also measured
1.38 fold |  |  | E272R alemtuzumab (antibody) | 
2.31 fold |  |  | E283H alemtuzumab (antibody) | 
 | 72 nM | 31 nM | I332E alemtuzumab (antibody) | 
 |  |  | S239D/I332E alemtuzumab (antibody) | ADCC, DoHH-2 target cells: EC50 [4]: 3 ng/mL; ADCC, DoHH-2 target cells: Fold WT [4]: 3.3 fold; ADCC, DoHH-2 target cells: log (EC50) [4]: 0.49 log (ng/ml)
 | 285 nM | 52 nM | S298A alemtuzumab (antibody) | 
 | 156 nM | 39 nM | S298A/E333A/K334A alemtuzumab (antibody) | 
12.8 fold |  |  | S304T alemtuzumab (antibody) | 
 | 550 nM | 64 nM | V264I alemtuzumab (antibody) | 
 | 52 nM | 17 nM | V264I/I332E alemtuzumab (antibody) | ADCC, DoHH-2 target cells: EC50 [4]: 4 ng/mL; ADCC, DoHH-2 target cells: log (EC50) [4]: 0.6 log (ng/ml)
1.51 fold |  |  | V284E alemtuzumab (antibody) | 
